Laboratory results: US9202600B2, “Method for production of radioisotope preparations and their use in life science, research, medical application and industry” (priority 2005, dated 2015)
Entries after “also recorded” stand apart in the source; their conditions may differ.

Key:
[1] = tested on: Daudi cells; assay: Survival of SCID mice i.v. xenografted with Daudi cells (leukemia model) after immunotherapy or radioimmunotherapy; type: in vivo; settings: for protection / disease status over 120 days observation: 5.5 MBq 149Tb-labeled Rituximab (5 μg), single i.v. injection
Method: Daudi cells (ATCC Nr. CCL-213) were used to simulate a leukemia model in mice. The cells were cultured in RPMI 1640 medium supplemented with 10% heat-inactivated fetal calf serum and 0.5% penicillin (10000 U/ml)/streptomycin (10 mg/ml) (Sigma-Aldrich). The cell suspension to be injected into mice was prepared by centrifuging the culture for 3 min at 1200 rpm, washing with PBS and re-suspending in PBS at 2.5-10^7 cells per ml.
(§1) The in vivo studies were performed using 26 female SCID mice (C.B.-17/ICR, Iffa Credo) under the authorization Nr: GE 31.1.1049/1879/11. The mice, which were 8 weeks old at the start of the experiment and weighed 20 g on average, were kept in sterile, ventilated boxes. […] Each mouse received 5-10^6 Daudi cells by injection of 0.2 ml cell suspension in PBS into the tail vein. […] According to the authorized protocol the mice were surveyed for 120 days: their behavior was logged each day, their condition was supervised once a week by a veterinarian, and they were weighed three times a week. At the appearance of obvious signs of paralysis, visible tumor masses, or a weight loss of >15%, the mice were sacrificed. One mouse was sacrificed shortly after injection (2 h p.i.) and kept deep-frozen for later analysis, in order to act as a reference for later quantification of the daughter radioactivity distribution.
The survival of animals until sacrifice because of disease development or the end of the experiment (no disease development) was compared between the different groups according a Kaplan Meier analysis using the Lee-Desu evaluation of the Unistat 3.0 statistical package (Megalon, Novato Calif., USA).

[2] = Biodistribution of 149Tb-labeled Rituximab and retention of long-lived daughter radioactivity (gamma spectroscopy of organs); type: in vivo, SCID mice; settings: for Biodistribution, Liver: SCID mouse, 2 h p.i. (i.v.)
Method: as §1
Organ samples were taken from the sacrificed mice and the radioactivity concentration of the long-lived daughter products was determined by using high-resolution gamma spectroscopy (18% HP—Ge detector in combination with the Gamma spectrometer Genie 2000, Canberra). Whole, intact mice, as well as isolated organ samples were measured. Since the radioactivity content of the samples was essentially very low, long measuring times (between 1 and 24 hours) were applied.

[3] = molecular target: T1, CD20 (Homo sapiens, UniProt P11836); assay: Cell binding of the labeled antibody; type: cell-based; settings: without extrapolation to infinite antigen excess
T1 construct: endogenous in cells
T1 sequence (P11836 1-297): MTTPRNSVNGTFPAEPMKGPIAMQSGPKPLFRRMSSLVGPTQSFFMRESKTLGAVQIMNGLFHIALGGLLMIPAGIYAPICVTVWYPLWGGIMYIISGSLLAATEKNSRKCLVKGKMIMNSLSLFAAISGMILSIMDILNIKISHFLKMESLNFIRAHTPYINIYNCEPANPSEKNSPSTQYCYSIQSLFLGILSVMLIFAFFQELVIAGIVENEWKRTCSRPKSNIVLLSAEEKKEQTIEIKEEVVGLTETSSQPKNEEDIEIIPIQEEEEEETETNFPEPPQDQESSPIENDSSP
Method: 25-40 μl of the ^149Tb solution characterized above was used immediately for the labeling procedure. The pH was adjusted to 5.5 by adding 60 μl of 3 M CH3COONH4 solution, followed by the addition of 10 μl (40 mg/ml) ascorbic acid. After adding 5 μl of a stock solution of the chelated antibody in PBS (10 mg/ml) the mixture was incubated for 10 min at room temperature, before dilution to a final volume of 1.0 ml in PBS-1% human serum. […] The injection of the radioimmuno-conjugate into the mice was performed 1 h after EOS. The in vitro behavior of the labeled bioconjugate (immunoreactivity, cell binding, cell killing efficiency) has been described in a previous paper [Vranjes S D, Miederer M, Comor J J, Soloviev D, Beyer G-J and the ISOLDE collaboartion. Labeling of monoclonal antibodies with 149-Th for targeted alpha therapy. J Lab Comp Radiopharm 2001; 44:718-720]. With the same antibody the inventors observed up to 55% cell binding without extrapolation to infinite antigen excess.

[4] = Daughter nuclide ingrowth and shelf-life of the 149Tb-labeled bioconjugate; type: physicochemical; settings: for increase of the long-lived daughter content, factor: fixed dose applied 4 hours after the final purification of the isotope (EOS)
Method: Spallation reaction in combination with on line mass separator technology was used for the production of ^149Tb for this study. The radiochemical separation and purification of the […] was relatively easy to perform in about 30 minutes in this specific case, since the inventors started from non-carrier added preparations. The final ^149Tb preparation was obtained in very high purity and in a small volume, the labeling of the bioconjugate was fast (10 minutes) and almost quantitative. The administration of the preparation should be carried out as rapidly as possible after purification of the ^149Tb, since levels of contamination with daughter nuclides will increase with time. For example, application of a fixed dose of the ^149Tb-labeled bioconjugate 4 hours after the final purification of the isotope itself (EOS) leads to an increase of the long-lived daughter content by a factor of 2. According to the preliminary dose estimation one could define a shelf-life for the labelled ^149Tb-labeled bioconjugate of about 4-6 hours. For a longer delay it would be advisable to repurify the ^149Tb from the accumulated daughter products, a process that could be expected to require 30 minutes.

[5] = listed as 149Tb-CHX-A-DTPA-Rituximab
[6] = Group 3, 5 μg 149Tb-labeled Rituximab (5.55 MBq) i.v. 2 days after Daudi cell inoculation
[7] = 2 h p.i., listed as 149Tb-CHX-A-DTPA-Rituximab

## ^149Tb-labeled Rituximab
[1]; 5.5 MBq 149Tb-labeled Rituximab (5 μg Rituximab per animal)
  time after which the only mouse of the group was lost (abdominal tumor growth): 48 days
[1]
  protection / disease status over 120 days observation: almost complete protection; also recorded: long-term survival without evidence of any disease at 120 days
[1]; [5]
  protection / disease status over 120 days observation: without any visible signs of a disease
[1]; listed as 149Tb-CHX-DTPA-Rituximab
  protection / disease status over 120 days observation: almost completely protected
[1]; [6]
  Follow-up (120 days after the therapy): no pathologic changes: 89% no
  Follow-up (120 days after the therapy): paralyzed, abdominal tumor: 11% paralyzed,
[1]; SCID mice, single i.v. 5.5 MBq labeled conjugate (5 μg Rituximab) 2 days after i.v. graft of 5·10^6 Daudi cells
  tumor free survival for >120 days, share of treated animals: 89%
[1]; xenografted SCID mice treated with 149Tb-labeled Rituximab
  signs of toxicity over four months: without detectable signs of toxicity
[2]; 2 h p.i.
  Biodistribution, Body total: 100 % i.d./Organ
  Biodistribution, Bone: 9.1 ± 0.7 %/g tissue
  Biodistribution, Muscles: <0.2 %/g tissue
[2]; 2 h p.i., bone total calculated as 9 × both femur activity
  Biodistribution, Bone: 13 ± 1 % i.d./Organ
[2]; 2 h p.i., both kidneys measured together, listed as 149Tb-CHX-A-DTPA-Rituximab
  Biodistribution, Kidney: 24 %/g tissue
[2]; [7]
  Biodistribution, Heart: 41 %/g tissue
  Biodistribution, Spleen: 42 %/g tissue
[2]; 120 days after injection
  share of the retained daughter activity located in bone tissue: 91.1%
[2]; 120 d p.i.
  Remaining daughter radioactivity, Blood: <0.01 % i.d./Organ
  Remaining daughter radioactivity, Body total (retention of the long-lived daughter products): 28.4 ± 4 % i.d./Organ
  Remaining daughter radioactivity, Bone: 13 ± 2 %/g tissue
  Remaining daughter radioactivity, Heart: <0.01 % i.d./Organ
  Remaining daughter radioactivity, Lung: <0.01 % i.d./Organ
  Remaining daughter radioactivity, Muscles: <0.02 % i.d./Organ
[2]; 120 d p.i., bladder measured with urine
  Remaining daughter radioactivity, Bladder: <0.01 % i.d./Organ
[2]; 120 d p.i., bone total calculated as 9 × both femur activity
  Remaining daughter radioactivity, Bone: 26 ± 4 % i.d./Organ
[2]; 120 d p.i., listed as 149Tb-CHX-A-DTPA-Rituximab
  Remaining daughter radioactivity, Body total (retention of the long-lived daughter products): 28.4±4 % i.d./Organ
[2]; 120 d p.i., listed as labeled antibody conjugate
  Remaining daughter radioactivity, Body total (retention of the long-lived daughter products): 28.4±4 % i.d./Organ
[2]
  Biodistribution, Liver: 18 ± 3 % i.d./Organ
[2]; [5]
  Biodistribution, Liver: 18±3 % i.d./Organ
[2]; after 120 days
  primary injected radioactive atoms excreted from the mice: 71.6%
[3]
  cell binding: up to 55%
[4]; defined according to the preliminary dose estimation
  shelf-life: 4 to 6 h
[4]; listed as 149Tb labeled bioconjugate
  increase of the long-lived daughter content, factor: increase the activity of the daughter product be by a factor 2. In this way
[4]; listed as 149Tb-labeled bioconjugate
  increase of the long-lived daughter content, factor: 2
